Reference: US20040233833A1, “Methods for identifying compounds with thrapeutic potential for treatment of central Neurodegenerative diseases resulting from abnormal protein or peptide accumulation” (priority 2001, published 2004)

Legend:
[1] = biological target: proteasome β subunits (T, CT/PGPH) (Homo sapiens, UniProt P28072+P28074+Q99436); test: Affinity labeling of proteasome β subunits with 125I-YL3-VS in the presence of REGs; type: biochemical; details: mean±S.D.
Text: To obtain estimates of substrate access to the proteasome's central chamber in the presence of REGγ and REGγ(K188E), the active site-directed probe, ^125I-YL3-VS, which covalently modifies all three active β-subunits in an activity dependent manner, was used. […] The phosphoimages show increased labeling of CT/PGPH and T subunits in the presence of REGγ and REGγ(K188E). The data further reveal that REGγ increased the rate of T-subunit labeling 4.7±2.6 (mean±S.D.) fold and the rate of CT/PGPH labeling 4.4±1.7 (mean±S.D.) fold over that seen with proteasome alone. Stimulation by the mutant REGγ(K188E) was greater, being 10.8±4.9 (mean±S.D.) fold for the T-subunit and 11.9±4.8 (mean±S.D.) fold for the CT/PGPH subunit. […] The finding that REGγ increased labeling of the CT and PGPH subunits was unexpected as the wild type activator suppresses hydrolysis of the CT substrate sLLVY (SEQ ID NO:1)-MCA.

proteasome [2] = biological target: T1, proteasome (Homo sapiens, UniProt P28072+P28074+Q99436); test: REGα(N146Y)/REGβ(N135Y) competition assay for relative proteasome affinity; type: binding; details: in terms of REGα(N146Y)/REGβ(N135Y) competition; wild-type REGγ 100
Text: As a measure of the relative affinities of REGγ and the REGγLys188 mutants for the proteasome, a competition assay was used. See Li et al. (2000), The Proteasome Activator 11S REG or PA28: Chimeras Implicate Carboxyl-Terminal Sequences in Oligomerization and Proteasome Binding But Not in the Activation of Specific Proteasome Catalytic Subunits. J. Mol. Biol. 299:641-54. All REGγLys188 mutants were relatively resistant to REGα(N146Y)/REGβ(N135Y) competition with apparent proteasome affinities varying from 40% to 90% that of wild-type REGγ.

proteasome [3] = biological target: T1, proteasome; test: Proteasomal hydrolysis of natural peptides P21 and BBC1 (HPLC); type: biochemical; details: 21-residue peptide P21; result in words
Description: Proteasomal hydrolysis of a 21 -residue peptide (P21) and a 49-residue peptide (BBC1) were prepared as described by Zhang et al. (1998), Proteasome Activation by REG Molecules Lacking Homolog-specific Inserts, J. Biol. Chem. 273:9501-09. Digestion products were applied to a C18 HPLC column and separated with a gradient of 0-45% acetonitrile containing 0.1% trifluoroacetic acid. To identify the products derived from P21, fractions were collected manually, concentrated, and subjected to mass spectrometry.

proteasomes [4] = biological target: T2, proteasomes (Homo sapiens, UniProt P28072+P28074+Q99436); test: Proteasomal degradation of fluorescein-labeled polyQ peptides (molecular exclusion chromatography); type: biochemical; details: proteasome + activator, 5 hr incubation
Description: The following peptides were synthesized using routine peptide synthesis:
Each peptide was incubated for 5 hr with proteasomes alone, proteasomes+REGγ, proteasome+REGγ(K188E) or proteasomes+REGα/β. Degradation was assayed by molecular exclusion chromatography using fluorescein as a signal (see FIG. 2). The degradation products were identified by HPLC-MS (FIG. 3). […] By contrast, in the presence of REGγ(K188E) the various polyQ peptides were degraded 5 to 10-fold faster.

[5] = biological target: T3, Human red blood cell proteasomes (Homo sapiens, UniProt P28072+P28074+Q99436); test: Activation of fluorogenic peptide hydrolysis by the proteasome in the presence of REG variants; type: biochemical
T3 construct: Human red blood cell proteasomes; from tissue; host or cells: human red blood cells

proteasomes [6] = biological target: T2, proteasomes; test: Proteasomal degradation of the fluorescein-tagged C31 peptide of APP; type: biochemical; details: result in words
Description: A 31-residue C-terminal peptide (C31) of APP, the transmembrane protein that gives rise to amyloid plaque forming Aβ peptides characteristic of Alzheimer's disease, was synthesized using routine peptide synthesis. A fluorescein tag was added to the peptide. C31 peptide is cytotoxic. See Lu et al. (2000), a Second Cytotoxic Proteolytic Peptide Derived from Amyloid Beta-Protein Precursor, Nat. Med. 6:397-404.
The C31 was incubated with proteasomes alone, proteasomes+REGγ, proteasome+REGγ(K188E) or proteasomes+REGα/β, and degradation was assayed as described in Example 8.

[7] = Heptamer stability on rechromatography (Superdex 200 size exclusion column); type: physicochemical
Text: To examine the effect of Lys188 substitution on REGγ heptamer stability, the wildtype and Lys 188 variant heptamers were rechromatographed on the Superdex 200 (26/60) size exclusion column used for purification. […] Replacement of Lys 188 by Pro or Phe severely affected the stability of REGγ heptamer.

[8] = biological target: T3, Human red blood cell proteasomes; test: Activation of fluorogenic peptide hydrolysis by the proteasome in the presence of REG variants; type: biochemical; remark: listed apart in the source
Description: Human red blood cell proteasomes (170 ng) were mixed with increasing amounts of purified REG variants. The reactions were started by adding 50 μl of 200 μMscu-LLVY-MCA, Boc-LRR-MCA, or Boc-LLE-βNA in 10 mM Tris, pH 7.5. After a 10 min incubation, the reaction was quenched with 200μl of cold 100% ethanol, and the released MCA or βNA ws measured fluometrically. Each data point represents the mean of three measurements from a single experiment. […] REGα (▪), REGγ(□), REGγ(K188E) or REGγ(K188D) (●), REGγ(K188H) (∘), REGγ(K188Q) or REGγ(K188N) (Δ), REGγ(K188A) (♦). The data for REGγ(K188E) and REGγ(K188D) and for REGγ(K188Q) and REGγ(K188N) were combined since their activities were indistinguishable.
Because each positive variant identified in the previous example included a mutation at Lys188, site-directed mutagenesis was used to generate a series of amino acid substitutions at this residue. Twelve mutants were constructed in which Lys188 of REGγ was changed to Ala, Arg, Asn, Asp, Cys, Gln, Glu, His, Ile, Phe, Pro, or Ser. Wild-type REGγ and the Lys 188 variants were expressed in E. coli, purified, and the activation specificity of each protein was measured using the diagnostic peptides LLVY (SEQ ID NO:1)-MCA, LRR-MCA, and LLE-βNA. Except for the K188R variant, all Lys 188 mutants stimulated the hydrolysis of LRR-MCA by the proteasome to the same extent or slightly better than wild-type REGγ. Substitution of negatively-charged Glu or Asp for the positively-charged Lys188 produced mutants with activation properties almost identical to REGα.
To determine the degree to which the activation specificity of REGγ(K188E/D) variants matches that of REGα, proteasomal cleavage of a series of fluorogenic peptides was measured in the presence of each activator.

Increase in rate of CT/PGPH labeling over proteasome alone [1]: 11.9±4.8 fold | Increase in rate of T-subunit labeling over proteasome alone [1]: 10.8±4.9 fold | Relative affinity for proteasome (proteasome [2]): 90 | Hydrolysis of P21 by the proteasome (proteasome [3]): markedly increased | % Degraded, substrate F1-EPQPQ (proteasomes [4]): 80% | % Degraded, substrate F1-KSQPQ (proteasomes [4]): 80% | % Degraded, substrate F1-QHQ (proteasomes [4]): 50% | % Degraded, substrate F1-QPQ (proteasomes [4]): 50% | % Degraded, substrate F1-QQQ (proteasomes [4]): >95% | Cleavage of peptides diagnostic for the CT-like or PGPH active sites ([5]; result in words): substantially more than REGγ | Stimulation of cleavage (x-fold) AAF-MCA ([5]; substrate AAF-MCA): 4 x-fold | Stimulation of cleavage (x-fold) DEVD-MCA ([5]; substrate DEVD(SEQ ID NO: 8)-MCA): 8 x-fold | Stimulation of cleavage (x-fold) FSR-MCA ([5]; substrate FSR-MCA): 7 x-fold | Stimulation of cleavage (x-fold) IEGR-MCA ([5]; substrate IEGR(SEQ ID NO: 5)-MCA): 2 x-fold | Stimulation of cleavage (x-fold) IETD-MCA ([5]; substrate IETD(SEQ ID NO: 6)-MCA): 21 x-fold | Stimulation of cleavage (x-fold) LGHD-MCA ([5]; substrate LGHD(SEQ ID NO: 7)-MCA): 10 x-fold | Stimulation of cleavage (x-fold) LY-MCA ([5]; substrate LY-MCA): 3 x-fold | Stimulation of cleavage (x-fold) VLK-MCA ([5]; substrate VLK-MCA): 6 x-fold | Stimulation of cleavage (x-fold) YVAD-MCA ([5]; substrate YVAD(SEQ ID NO: 9)-MCA): 7 x-fold | Degradation of C31 peptide by proteasomes (proteasomes [6]): extensively degraded | Activation properties compared with REGα ([8]; small fluorogenic peptides, result in words): virtually identical to REGα | Stimulation of cleavage (x-fold) LLE ([8]; substrate LLE-βNA (PGPH site)): 9 x-fold | Stimulation of cleavage (x-fold) LLVY ([8]; substrate LLVY-MCA (chymotrypsin-like site)): 14 x-fold | Stimulation of cleavage (x-fold) LRR ([8]; substrate LRR-MCA (trypsin-like site)): 15 x-fold
Substance: γK188E: mutant REGγ in which Lys188 was changed to Glu
Heptamers dissociated during the second gel filtration ([7]; Superdex 200): More than half | Percent heptamer ([7]; after second gel filtration): 50%
